Source: the DeepSol protein solubility set

Assay: soluble on expression in E. coli; label from the status in PepcDB or PDB records

Sequence	soluble on expression in E. coli
MDFETNEDINGVRFTWNVFPSTRSDANSNVVPVGCLYTPLKEYDELNVAPYNPVVCSGPHCKSILNPYCVIDPRNSSWSCPICNSRNHLPPQYTNLSQENMPLELQSTTIEYITNKPVTVPPIFFFVVDLTSETENLDSLKESIITSLSLLPPNALIGLITYGNVVQLHDLSSETIDRCNVFRGDREYQLEALTEMLTGQKPTGPGGAASHLPNAMNKVTPFSLNRFFLPLEQVEFKLNQLLENLSPDQWSVPAGHRPLRATGSALNIASLLLQGCYKNIPARIILFASGPGTVAPGLIVNSELKDPLRSHHDIDSDHAQHYKKACKFYNQIAQRVAANGHTVDIFAGCYDQIGMSEMKQLTDSTGGVLLLTDAFSTAIFKQSYLRLFAKDEEGYLKMAFNGNMAVKTSKDLKVQGLIGHASAVKKTDANNISESEIGIGATSTWKMASLSPYHSYAIFFEIANTAANSNPMMSAPGSADRPHLAYTQFITTYQHSSGTNRIRVTTVANQLLPFGTPAIAASFDQEAAAVLMARIAVHKAETDDGADVIRWLDRTLIKLCQKYADYNKDDPQSFRLAPNFSLYPQFTYYLRRSQFLSVFNNSPDETAFYRHIFTREDTTNSLIMIQPTLTSFSMEDDPQPVLLDSISVKPNTILLLDTFFFILIYHGEQIAQWRKAGYQDDPQYADFKALLEEPKLEAAELLVDRFPLPRFIDTEAGGSQARFLLSKLNPSDNYQDMARGGSTIVLTDDVSLQNFMTHLQQVAVSGQA	soluble
MAIIEEIFEDEEDQITKVDSLKKEGNNFFANGEFEKANEKYQEAIASCPPTSTEVQSILLSNSAAALIKLRKWESAVEAASKSIEIGATNEKALERRAFAYSNMSEKYENSIEDYKQLQESLPKRRVELDRKIAEINEKINNRNEAMKADVMEKLKGFGNFCLSPFGLSTDSFEMVPNGNGGFSVQMKGATNKQEGASQEKKEEENA	soluble
MSSPARQYRGRSSEQRAAERRARLLEAGLQVFGTVGGEKATMTAICAEAKLTERYFYESFRDRDDLLVQVIEGIAAEIAEAARVTLQTVTGDPEVRARAAIATFVDILTADPRKGRVSIIESAAAEPLRTRRRELLRAFALLVAEESKELYGDRAWSSPQDEITALLFVGGLAELMTAWLNGEIEVSPEQIVDAATYQFTSTAHR	not soluble
MFRISQLLKTLHDDMAELKPVKASRKMKGPVVIWNLIRRCNLQCKHCYSTSLDIDFKDELSTEQVKTTIDDLKVAHVPVLILSGGEPLLRPDIYEITEYAKQKGFYLALSTNGTLINEDNIEAIKAAEYQYVGISIDGLEEFHDEFRRQKGSFKTSMHAIKLCKDAGIKVGMRLCLTRENFKDLPAMLNLMEENSVDKFYLSHLNYSGRGKRTAENDAMFKMTKDAMELLYERAWTHINQGIETDFVTGNNDADGPFLLQWASKQFAEEYPEAIANLKQRLINWGGNSSGINVANIDNTGTIHPDTYWWNHPIGNVTTEKFSDVWRDTQDPLMLGFRQTPRPVKGRCASCEHLAICGGNTRTRAFAQSGDAWAEDPGCYLDDDEIGFIPSPSKFADELTNTENPIQFVEV	not soluble
MGSDKIHHHHHHMQALQTFNFEELPVRTLEVDGEPYFIGKDVADILGYANGRDALSKHVDEDDKKVLTSRNTTLENLPNRGLTAVNESGLYSLIFSSKLESAKRFKRWVTSDVLPAIRKYGIYATDNVIEQTLKDPDYIITVLTEYKKEKEQNLLLQQEIGELKPKADYVDEILKSTGTLATTQIAADYGISAQKLNKLLHEARLQRKVNKQWVLYSEHMGKSYTDSDTITIVRSDGREDTVLQTRWTQKGRLKIHEIMTEFGYEANLGGA	not soluble
MAHPQEIREKLRRLYVSGEQTLETAALMCEIPQTTARAWKRADKEKGDDWDKMRAAYTLAGGGIEDLSRAMLAGFMVQYNSTMTMLQDSSTEDLPPSDRAKLLASLADAFTKTVSANARVMPETSKLATALELIEFLMAFVQEKHPKHLPAFVEVLEPFGVEVEKKFG	not soluble
MTTGVRRRMGVEERRQQLIGVALDLFSRRSPDEVSIDEIASAAGISRPLVYHYFPGKLSLYEAALQRASDDLADRFVEPRQGPLGARLLRVMGRYFDFVDEHGPGFSALMRGGPAVGSTTTNALVDSVRQAAYVQILSHLDVTEPPARLELVVRSWISLAESTALLWLDGRRIPRAELETQLVHDFAALMAVSAAYDEEMGALVRRVLADEPEDGPFGDLVDRLLALSAR	soluble
MHITNRSHLADRYGKRTSAEFLLHERPILSFPISLAAIPKEARYLSWELIDYDTIPLIGFPFIHWLAANVPVTNEIPEDFSRTALKPTIQGKNSLASPLGKQMIPALATETLPELTERYLGLSPRSGVHTYTLYVYTTKNPLNLKEGFFANELHQALNDQLLAKAKFEFLY	not soluble
GSPEFEFKQKYDYFRKKLKKPADIPNRFEMKLHRNNIFEESYRRIMSVKRPDVLKARLWIEFESEKGLDYGGVAREWFFLLSKEMFNPYYGLFEYSATDNYTLQINPNSGLCNEDHLSYFTFIGRVAGLAVFHGKLLDGFFIRPFYKMMLGKQITLNDMESVDSEYYNSLKWILENDPTELDLMFCIDEENFGQTYQVDLKPNGSEIMVTNENKREYIDLVIQWRFVNRVQKQMNAFLEGFTELLPIDLIKIFDENELELLMCGLGDVDVNDWRQHSIYKNGYCPNHPVIQWFWKAVLLMDAEKRIRLLQFVTGTSRVPMNGFAELYGSNGPQLFTIEQWGSPEKLPRAHTAFNRLDLPPYETFEDLREKLLMAVENAQGFEGVD	soluble
MNPSPSIAGLSDIEALERVPLEQRDLPSSTYELLQRSARRHGQRIALSCLLHGSAAEEPLRISYAELFARVTQTANALHRLGLESHQAVSFLLPNLPQTHYVIWGGEAAGIVNAINPLLEPEHIAELIRASNTRVLVTLAPFPGTDLWQKVAGLRAQLPELYAIVVVDPANLLPAPQREALKAQRGPLPEGVLDFDTLIADCPADRLESGRAIHPDDVASYFHTGGTTGTPKLAPHSHFNEVAMAEIMGLNADYGVDDVLLCGLPLFHVNGVMVTGLAPFHRGAQVLLAGPQGYRNPTLIQDFWKLVERYRVTSFSGVPTIYAALLQVPSDGRDLSSLRFALCGAAPMPVELIRQFEARTGLKVIEGYGLTEGTCGTSCNPRGGERRPGSIGLRLPYCQVKVAVLDGEGNYLRDAAPNEVGNLCLKGPTVFKGYLQQDRNRDIWIGDGWFNTGDLGRIDEDGYIWLTGRSKDLIIRGGHNIDPQMIEEALHRHPAVALAAAVGKPDAKAGELPVAYIQLKPGASASEEELLEHASRHVPERAAVPKDIWLIESMPVTAVGKTFKPALRLDAIRRVLEEESRRIAEDIRVEVVADERHGQLAHLHVPALDERRQAALEELLGGYALNYRL	not soluble
MGSDKIHHHHHHMIDEIKSGKYKHGDKLPTEKELMERFNASRETVRKALERLVVKNLVIRKPGLGTFVNIEKKNKVVGILVQQITSYIFPYIALGAEEVLFANGYKMLLGNASEDPHKERQIINEWLEVGVDGLIIDPVYSATKRSNRDLIEDMAKKGTKVVLVHTNWDIEGVGSVVLDDWYGGEKAAEIFYQYGHRNVAVLYKTIHLPSVVRAQAFLKRGRELGFEKVHEKSFHVSEFTGIVMQSAFELLSLPKDQRPTAVFCYNDATALQFFLAAKRMGLKIPEDVSVIGFDDAPIGDFREILTTFEHPKEEVGKKAVEILLKMIDGEKPEKYVFKPKLIMRESVTYPKK	not soluble
MSLNKVWLTGLLTATASGVFSASTLAATEITWWHAMGGQLGEMVNQLATDFNASQSDYKLTPVYKGSYTETLTTGIAAFRAGQAPNILQVFDAGAATIMSSKGVAKPVQDLMIESGYPFTAQDYIAGVRNFYADNTGKMVGMPFNSSTPVLYYNKDMLASVNAQAPQTYEQLEQVAAKLAEKGQAGFAQSLAPWIMFENFKSRHNLPLSDKQNGYQDLSTKIMFNSDDMLMHVKKLKEWSDKGYYKYYGSDWDANQTPFERGEVAMWMGSSGSFGGLRNRVKFNLGTTYLPYWESVTKNPTHTFIGGAALFALQGHTPAQDKGVAAFFAYLTKPETQMNWHKTTGYVPVTNAAYDLTKQSGYYQENPDAEVGVKQLSLPDGEWTKGYRLGYYPQVREVMHREFDNIFSGRSTVESSLNKVEDESAKLLNRFARTVQEGGSHHHHHH	soluble
MAAAAELRLLEKSLGLKPGNKYSAQGERQIPVLQTNNGPSLMGLSTIATHLVKQASKEHLLGSTAEEKAMVQQWLEFRVTRVDGHSSKEDTQTLLKDLNSYLEDKVYLAGHNITLADILLYYGLHRFIVDLTVQEKEKYLNVSRWFCHIQHYPDIRQHLSSIVFIKNRLYANSH	not soluble
MKVGVVGTGFVGSTAAFALVLRGSCSELVLVDRDEDRAQAEAEDIAHAAPVSHGTRVWHGGHSELADAQVVILTAGANQKPGESRLDLLEKNADIFRELVPQITRAAPDAVLLVTSNPVDLLTDLATQLAPGQPVIGSGTVLDSARFRHLMAQHAGVDGTHAHGYVLGEHGDSEVLAWSSAMVAGMPVADFMQAQNLPWNEQVRAKIDEGTRNAAASIIEGKRATYYGIGAALARITEAVLRDRRAVLTVSAPTPEYGVSLSLPRVVGRQGVLSTLHPKLTGDEQQKLEQSAGVLRGFKQQLGL	soluble
PLGVSAAGALDRASLRRANRLVGNASSAAAIESVNGGLTVEAVGDQVIAVTGAPTTLTIESPSWVGSDDDDGGARPGGKRTVPMAAPFALLDGELLTLGAPESGFRNYVAIRGGVDAPEVLGSRSADTMSGIGPAPLAIRQVLATGEQTASTAVGAPELQPDFPGAGVTVLDVVPGPRADWFDQEALDSLCNQEWLVTPQSNRVGMRLDGKPLERTREGELPSEGTMAGALQIPPAGLPVLFLADHPITGGYPVIGVVRDEHLDRAAQVPIGGRIRFRLVPDSADFTTTTTKTPEK	not soluble
MGSDKIHHHHHHMRKWISYPHREGTISRQAHADFPAEAIYEREVGRSGFFGPATHLHHKHPPTAWSAWEGPLRPRAYDLNELPHGTPAPWDAPLVLHNAQCKLRIWRCDQAMTQLSRNADGDDLLFIHGGSGELFCDYGHLSYRDGDYILVPRSTSWRIEPASPTTMLLIETSNGAYQLPEKGLVGPHAIFDEAVLDVPAIDDAFKAQQTEDEWQVVIKRRGALSTVTYPYNPLDAIGWHGNLSVARVNWRDIRPLMSHRYHLPPSAHTTFVADGFVICTFVPRPIESDPGALKVPFYHNNDDYDEVIFYHAGDFFSRDNIKPGMLTFHPAGFTHGPHPKAFAKAMTDPKTFTDEVAVMIDARDALEQGPGLAGVEWQGYVDSWKPKQA	not soluble
MPDISIILLGNYAPDQVIHARLLFMRMEQVPGGHHLQILQFRFTIPFRQADFCSLDQSDVMCSETHCYYLMNLKVGAFFETAQNILMIRWLFS	not soluble
QMNYEEVIKKYRGEENFDHAAYDWRLHSGVTPVKDQKNCGSCWAFSSIGSVESQYAIRKNKLITLSEQELVDCSFKNYGCNGGLINNAFEDMIELGGICPDGDYPYVSDAPNLCNIDRCTEKYGIKNYLSVPDNKLKEALRFLGPISISVAVSDDFAFYKEGIFDGECGDQLNHAVMLVGFGMKEIVNPLTKKGEKHYYYIIKNSWGQQWGERGFINIETDESGLMRKCGLGTDAFIPLIE	soluble
MKYKSVFDIIGPVMVGPSSSHTAGAVRIGLVARKLFGRKPTWARISFYGSFAETYRGHGTDVAIVAGLLGFDTFDERLPNALEIAQAEGVDVSFSAEEAIPHHPNTARLRIGDDEGELELVGISIGGGKIEIVELNGFALKLSGHHPALLIMHNDRYGTIGAVASVLAKRKINIGHMEVSRKEKGKEALMAIEVDQPLTDDLIQELEQLPNIIQVAKLAD	not soluble
